No end group written: not given here.
Assays:
[1] = biological target: Arc(207-278) binding to TARPγ2 peptide (Rattus norvegicus, UniProt Q63053); settings: Figure S5C; chlorpromazine data not shown
[2] = biological target: T1, Arc N-lobe (207-277) (rat, UniProt Q63053 207-277); assay: pull-down
T1 sequence (looked up): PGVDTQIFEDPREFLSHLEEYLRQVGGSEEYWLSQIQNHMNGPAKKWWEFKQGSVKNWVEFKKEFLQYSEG

[3] = biological target: T2, RnArc (207-370), Arc GAG domain, wild type (rat, UniProt Q63053 207-370); assay: pull-down
T2 sequence (looked up): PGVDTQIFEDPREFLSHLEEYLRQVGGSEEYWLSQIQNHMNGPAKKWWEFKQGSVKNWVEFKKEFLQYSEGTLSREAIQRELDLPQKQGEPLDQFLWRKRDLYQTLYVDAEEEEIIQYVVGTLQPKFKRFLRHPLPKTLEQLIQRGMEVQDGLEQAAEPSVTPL

[4] = biological target: T2, RnArc (207-370), Arc GAG domain, wild …; assay: fluorescence polarisation

CN1CCN(CCCN2c3ccccc3Sc3ccc(C(F)(F)F)cc32)CC1 [Trifluoperazine]
inhibition of Arc N-lobe binding [1]: inhibited binding, but with lower affinity

TGLIENRPQSPAAGRTPVFVSPTPPPPPPPLPSALSTSSLRAS (domain or fragment, mouse, UniProt Q8R5H6 301-343, looked up) [GST-WAVE1 (aa301-343)]
binding result [2]: binds

{GST}-DRHKQLRATARATDYLQASAITRIPSYRYRYQRRSRSSSRSTEPS (domain or fragment, mouse, UniProt O88602 203-247, looked up) [GST-TARPγ2 fragment (203-247)]
binding result [3]: binds

B1: GST-TARPγ2 cytoplasmic tail (203-323) (domain or fragment, mouse, UniProt O88602 203-323, looked up)
chain: DRHKQLRATARATDYLQASAITRIPSYRYRYQRRSRSSSRSTEPSHSRDASPVGVKGFNTLPSTEISMYTLSRDPLKAATTPTATYNSDRDNSFLQVHNCIQKDSKDSLHANTANRRTTPV
binding result [4]: binds

RTPVFV (peptide, UniProt Q8R5H6 315-320, looked up) [WAVE1 peptide (aa315-320)]
binding result [4]: binds

From PMC4409568 (Neuron, 2015)
